Test results published in the supplement of paper PMC10126150.
± gives the standard deviation of the averaged measurements.

system: ATP; assay: switch fluorescence ratio, 500 uM ATP over buffer (Cy3 cluster intensity, sum of 5 cycles each) (fold (ratio)); higher = stronger signal-on switching upon ATP binding; sequences stand for … in TCGTCGGCAGCGTCAGATGTGTATAAGAGACAGTTTTTTTTTTTTTTTTTTTTTTTTT…TC; settings: aptamer strand: ATP DNA aptamer (quencher-CACCTGGGGGAGTATTGCGGAGGAAGG + anchor), 100 nM annealed; ATP concentration: 500 uM
Method in brief: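 Between each of five buffer/ATP cycles, the flow-cell was stripped with NaOH and re-annealed. Each cycle imaged Cy3-labelled switching-strand clusters, annealed to 100 nM quencher-labelled ATP aptamer on a modified Illumina MiSeq flow-cell, first in selection buffer and then after 15 min with 500 uM ATP at 22 °C. The fluorescence ratio is summed target-cycle over summed buffer-cycle Cy3 intensity per cluster, averaged per switch-domain sequence, with clusters outside 100-1000 RFU excluded.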
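Note: ATP exposure 15 min at 22 °C before imaging.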

CCTCTATTCT and GGGCAAAGGT are within error of each other in switch fluorescence ratio: 1.1 ± 0.026 for the first, 1.09 ± 0.16 for the second.

Compared with GGCATTTTAT, ATACCTGAGT is higher in switch fluorescence ratio: 1.01 ± 0.061 for the first, 1.21 ± 0.034 for the second.

GATGATCTAT and ACGGTTAAGG are within error of each other in switch fluorescence ratio: 1.01 ± 0.035 for the first, 1.03 ± 0.019 for the second.

AAAAAGGGGT and TTTGGGTTCC are within error of each other in switch fluorescence ratio: 1.15 ± 0.34 for the first, 1.44 ± 0.35 for the second.

TTGGCAACTT and ATGGGATCTG are within error of each other in switch fluorescence ratio: 1.03 ± 0.03 for the first, 0.999 ± 0.025 for the second.

ATTAATGTGA and TTTGGGGGAT are within error of each other in switch fluorescence ratio: 1 ± 0.031 for the first, 1.02 ± 0.1 for the second.

Going from TGTGTTCCTT to CCCAGGTAGC, the switch fluorescence ratio rises from 1 ± 0.018 to 4.65 ± 0.43.

TTAAATGGCA and TTTTTCAACC are within error of each other in switch fluorescence ratio: 0.993 ± 0.033 for the first, 1.02 ± 0.017 for the second.

Going from TCGGTCGGGC to GGGTATGCTG, the switch fluorescence ratio falls from 1.01 ± 0.013 to 0.9479 ± 0.0067.

GAAGGGCATA and TTTGCTTGGT are within error of each other in switch fluorescence ratio: 1.02 ± 0.019 for the first, 0.994 ± 0.03 for the second.

GATTGGATCG and CGAGGCCGGG are within error of each other in switch fluorescence ratio: 0.9904 ± 0.0051 for the first, 1.01 ± 0.015 for the second.

First: AATGTGTGCT
Second: AAATCACGTC
The switch fluorescence ratio of the first is lower: 0.949 ± 0.0099 for the first, 1.07 ± 0.019 for the second.

TTCAGCTTGG and AAAGGTGGCG are within error of each other in switch fluorescence ratio: 0.99 ± 0.015 for the first, 1.07 ± 0.19 for the second.

ACGTTTGGAT and ACCGGAGGGG are within error of each other in switch fluorescence ratio: 1.02 ± 0.027 for the first, 1.17 ± 0.26 for the second.

CCGTTTCGTG and TTAGGTGTCT are within error of each other in switch fluorescence ratio: 0.9948 ± 0.0046 for the first, 0.998 ± 0.071 for the second.

Compared with GAGTGGTTGC, CGACGTTCAC is higher in switch fluorescence ratio: 1.05 ± 0.12 for the first, 1.96 ± 0.051 for the second.

First: TGAAACCACT
Second: AAGGTTCTGG
The switch fluorescence ratio of the first is higher: 1.1 ± 0.013 for the first, 0.9883 ± 0.0083 for the second.

CGGAATGGGG and GAAAACTTAA are within error of each other in switch fluorescence ratio: 1.02 ± 0.015 for the first, 1.029 ± 0.006 for the second.

TATATTGCAT and CTTTTGGGCG are the same in switch fluorescence ratio: 1.01 ± 0.015 for the first, 1.01 ± 0.056 for the second.

TAAAAAATTC and TTTAAGTGAG are within error of each other in switch fluorescence ratio: 1.03 ± 0.04 for the first, 0.981 ± 0.021 for the second.

TGGGGTCAGG and TGGATATTTT are within error of each other in switch fluorescence ratio: 1.016 ± 0.0086 for the first, 0.993 ± 0.044 for the second.

ACGGAATATT and TCGGCGGGGA are within error of each other in switch fluorescence ratio: 1.171 ± 0.0019 for the first, 1.05 ± 0.14 for the second.

TTTTTGCCTA and TTTAGGGTAT are within error of each other in switch fluorescence ratio: 1.015 ± 0.0089 for the first, 1.012 ± 0.0069 for the second.

ATAGTTTG and GGTAGGGGTT are within error of each other in switch fluorescence ratio: 0.97739 ± 0.00022 for the first, 1 ± 0.053 for the second.

ATATAGTTGT and ACTGGGGACG are within error of each other in switch fluorescence ratio: 0.999 ± 0.016 for the first, 1.02 ± 0.053 for the second.

ACACGTGGGC and GAGCAGTCGG are within error of each other in switch fluorescence ratio: 1.02 ± 0.029 for the first, 0.982 ± 0.036 for the second.

Compared with GGGCATGGAG, ATACCAGGTT is higher in switch fluorescence ratio: 0.992 ± 0.02 for the first, 1.18 ± 0.063 for the second.

AGGGCAGAGA and ACCCTCGAAT are the same in switch fluorescence ratio: 1.02 ± 0.046 for the first, 1.02 ± 0.011 for the second.

TTTAAGAATC and AGGTGTGTCT are within error of each other in switch fluorescence ratio: 0.994 ± 0.03 for the first, 1.019 ± 0.0093 for the second.

TTCATCGGGT and ATGGGGAATT are within error of each other in switch fluorescence ratio: 1.01 ± 0.014 for the first, 0.995 ± 0.035 for the second.

ATGTGTAACA and TAAATTATTG are within error of each other in switch fluorescence ratio: 0.97 ± 0.037 for the first, 0.9768 ± 0.0079 for the second.

GGGTCCGGTC and TGTGGGTTCC are within error of each other in switch fluorescence ratio: 1.0075 ± 7.9e-05 for the first, 1.06 ± 0.11 for the second.

TTGAATGGTC and ATGGGAGTAG are within error of each other in switch fluorescence ratio: 0.979 ± 0.081 for the first, 0.9562 ± 0.0062 for the second.

Compared with TGGGAAGTTC, TTACGGGTCC is lower in switch fluorescence ratio: 1.04 ± 0.046 for the first, 0.961 ± 0.012 for the second.

ATGTTGAAGG and TAGTGTGGGG are within error of each other in switch fluorescence ratio: 1.03 ± 0.069 for the first, 1.04 ± 0.034 for the second.

GAAAAAAGGA and AGCAACAGTT are within error of each other in switch fluorescence ratio: 0.981 ± 0.028 for the first, 1.19 ± 0.28 for the second.

TCCCCAGCAC and TGCTAACGTG are within error of each other in switch fluorescence ratio: 3.1 ± 2.7 for the first, 0.977 ± 0.0057 for the second.

AATGTTATAT and TGATGTGGGG are within error of each other in switch fluorescence ratio: 1.01 ± 0.014 for the first, 0.97 ± 0.029 for the second.

Going from TACGCCATAT to TGCGGGGGTG, the switch fluorescence ratio falls from 1.46 ± 0.18 to 1.05 ± 0.018.

First: GGTTGGGTCC
Second: ATTAGTAG
The switch fluorescence ratio of the first is lower: 0.9701 ± 0.0018 for the first, 1.022 ± 0.0095 for the second.

Compared with TAATTTCAAG, TGCCTTTCGG is lower in switch fluorescence ratio: 1.014 ± 0.0039 for the first, 0.9909 ± 0.0062 for the second.

GCTGGGGGTG and GTGGTGCCAA are the same in switch fluorescence ratio: 1.01 ± 0.012 for the first, 1.01 ± 0.026 for the second.

GACGGACAGG and CAGGCATTAT are within error of each other in switch fluorescence ratio: 1.06 ± 0.024 for the first, 1.08 ± 0.043 for the second.

CATCGAGTGT and AAACGCCTGC are within error of each other in switch fluorescence ratio: 1.05 ± 0.029 for the first, 1.08 ± 0.026 for the second.

CTGGTTTAGG and GGTAGAGCTG are the same in switch fluorescence ratio: 1 ± 0.036 for the first, 1 ± 0.018 for the second.

Going from ATATATGTAC to AAGTCCCTTC, the switch fluorescence ratio falls from 1.085 ± 0.0016 to 1.01 ± 0.035.

AGTACACGTG and ACATTGGAGG are within error of each other in switch fluorescence ratio: 0.993 ± 0.026 for the first, 0.986 ± 0.025 for the second.

GGAATACGTT and TAGCATGTTC are within error of each other in switch fluorescence ratio: 1.08 ± 0.061 for the first, 1.09 ± 0.049 for the second.

CGTTGCTTGG and TGAGTTCAAC are within error of each other in switch fluorescence ratio: 1 ± 0.046 for the first, 1.04 ± 0.086 for the second.

ACGGGGGCCT and GAAGTTCAGG are within error of each other in switch fluorescence ratio: 1.014 ± 0.0045 for the first, 1.03 ± 0.018 for the second.
